Experimental data: the RNAGym collection of RNA variant scans (doi:10.1073/pnas.2313332121)

B1: TPR t1 (parent)
chain: GACCAAUCUGCCCUCAGAGCUCGAGAACAUCUUCGGAUGCAGAGGAGGCAGGCUUCGGUGGCGCGAUAGCGCCAACGUCCUCAACCUCCAAUGCAUCCCACCACAUGAUGAUGCCUGAAGAGCCUUGGUUUUUUG

Variants of: B1
Experiment: polymerase ribozyme fitness, log enrichment relative to wild type (log ratio); higher = more active; in vitro selection for triplet polymerase activity
In short: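 Mutant libraries of each subunit of a heterodimeric triplet polymerase ribozyme were built by PCR and transcribed. Each library went through one round of in vitro selection in triplicate: annealing with biotinylated primer, partner subunit and triplets, frozen incubation at −7 °C, gel excision of extended constructs, streptavidin-bead capture and RT-PCR. Input and output libraries were Illumina-sequenced; only genotypes with ≥10 input reads and ≥1 read per output were kept. Fitness is log2(genotype enrichment/wild-type enrichment), using inverse-variance-weighted replicate averages.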

| Variant | polymerase ribozyme fitness (log ratio) |
| --- | --- |
| GACCAAUCUGCCCUCAGAGCUCGAGAACAUCUUCGGAUGCAGAGGAGGCAGGCUUCGGUGGCGCGAUAGCGGCAACGUCCUCAACCUCCAAUGCAUCCCACCACAUGAGGAUGCCUGAAGAGCCGUGGUUUUUUG [C72G U109G U125G] | -4.97 |
| GACCAAUCUGCCCUCAGAGCUCGAGAACAUCUUCGGAUGCAGAGGAGGCAGGCUUCGGUGGCGCGAUAGCGGCAACGUCCACAACCUCCAAUGCAUCCCACCACAUGAUGAUGCCUGAAGAGCCUUGGUUUUUUG [C72G U81A] | -2.98 |
| GACCAAUCUGCCCUCAGAGCUCGAGAACAUCUUCGGAUGCAGAGGAGGCAGGCUUCGGUGGCGCGAUAGCGGCAACGUCCCCAACCUCCAAUGCAUCCCACCACAUGAUGAUGCCUGAAGAGCCUUGGUUUUUUG [C72G U81C] | -1.12 |
| GACCAAUCUGCCCUCAGAGCUCGAGAACAUCUUCGGAUGCAGAGGAGGCAGGCUUCGGUGGCGCGAUAGCGGCAACGGCCUCAACCUCCAAUGCAUCCCACCACAUGAUGAUGCCAGAAGAGCCUUGGUUUUUUG [C72G U78G U116A] | -3.97 |
| GACCAAUCUGCCCUCAGAGCUCGAGAACAUCUUCGGAUGCAGAGGAGGCAGGCUUCGGUGGCGCGAUAGCGGCAACGUCCCCAACCUCCAAUGCAUCCCACCAGAUGAUGAUGCUUGAAGAGCCUUGGUUUUAUG [C72G U81C C104G C115U U133A] | -6.64 |
| GACCAAUCUGCCCUCAGAGCUCGAGAACAUCUUCGGAUGCAGAGGAGGCAGGCUUCGGUGGCGCGAUAGCGGCAACGUCCUCAACCCCCAAUACAUCCCACCAGAUGAUGAUGCCUGAAGAGGCUUGGUUUUUUG [C72G U87C G93A C104G C123G] | -6.53 |
| GACCAAUCUGCCCUCAGAGCUCGAGAACAUCUUCGGAUGCAGAGGAGGCAGGCUUCGGUGGCGCGAUAGCGGCAACGUCCUCAACCUCCAAUGCAUCCCACCACAUGAUGAUGCCUGAAGAGCCAUGGUUUUCUG [C72G U125A U133C] | -0.433 |
| GACCAAUCUGCCCUCAGAGCUCGAGAACAUCUUCGGAUGCAGAGGAGGCAGGCUUCGGUGGCGCGAUAGCGGCAACGUCCUCAACCUCCAAUGCAUCCCACCACAUGAUGAUGCCUGAAGAGCCUUGGCAUUUUG [C72G U129C U130A] | -1.89 |
| GACCAAUCUGCCCUCAGAGCUCGAGAACAUCUUCGGAUGCAGAGGAGGCAGGCUUCGGUGGCGCGAUAGCGGCAACGUCCUCAACCUCCAAUGCAUCCCACCACAAGAUGAUGCCUGAAGAGCCUUGGAUUUUUG [C72G U106A U129A] | -1.25 |
| GACCAAUCUGCCCUCAGAGCUCGAGAACAUCUUCGGAUGCAGAGGAGGCAGGCUUCGGUGGCGCGAUAGCGGCAACGUCCUCAACCUCCAACGAAUCCCACCACAUGAUGAUGCCUGAAGAGCCUUGGUUUUUUG [C72G U92C C94A] | -3.47 |
| GACCAAUCUGCCCUCAGAGCUCGAGAACAUCUUCGGAUGCAGAGGAGGCAGGCUUCGGUGGCGCGAUAGCGGCAACGGCCUCAACCUCCAAUGCAUUCCACCACAUGAUGAUGCCUGAAGAGCAUUGGUUUUUUG [C72G U78G C97U C124A] | 1.18 |
| GACCAAUCUGCCCUCAGAGCUCGAGAACAUCUUCGGAUGCAGAGGAGGCAGGCUUCGGUGGCGCGAUAGCGGCAACGUCCUCAACCUCCAAAGCAUCCCACCACAUGAUGAUGCCUGUAGAGCCUUGGUUCUUUG [C72G U92A A118U U131C] | -3.98 |
| GACCAAUCUGCCCUCAGAGCUCGAGAACAUCUUCGGAUGCAGAGGAGGCAGGCUUCGGUGGCGCGAUAGCGGCAACGUCCUCAACCCCCAAUGCAUCCUACCACAUGAUGAUGCGUGAAGAGCCUUGGUUUUUUG [C72G U87C C99U C115G] | -5.69 |
| GACCAAUCUGCCCUCAGAGCUCGAGAACAUCUUCGGAUGCAGAGGAGGCAGGCUUCGGUGGCGCGAUAGCGGCAACGUCCUCAACCUCCAAUGCAUCCCACCACAUGAUGACGCCUGAAGAGCCUUGGUUUUUUG [C72G U112C] | 1.51 |
| GACCAAUCUGCCCUCAGAGCUCGAGAACAUCUUCGGAUGCAGAGGAGGCAGGCUUCGGUGGCGCGAUAGCGGCAACGUCCUCAACCUCCAAUGCAUCCCACCACAUGAUGAAGCCUGAAGAGCCUUGGUUUUUUG [C72G U112A] | 0.104 |
| GACCAAUCUGCCCUCAGAGCUCGAGAACAUCUUCGGAUGCAGAGGAGGCAGGCUUCGGUGGCGCGAUAGCGGCAACGUCCUCAACCUCCAAUGCAUCCCACCACAUGAUGAGGCCUGAAGAGCCUUGGUUUUUUG [C72G U112G] | -0.196 |
| GACCAAUCUGCCCUCAGAGCUCGAGAACAUCUUCGGAUGCAGAGGAGGCAGGCUUCGGUGGCGCGAUAGCGGCAACGUCCUCAACCUCCAAUGCAUCCCACCACAGGAUGAUGCCUGAAGAGCCUUGGUUUUUUG [C72G U106G] | -1.97 |
| GACCAAUCUGCCCUCAGAGCUCGAGAACAUCUUCGGAUGCAGAGGAGGCAGGCUUCGGUGGCGCGAUAGCGGCAACGUCCUCAACCUCCAAUGCAUCCCACCACACGAUGAUGCCUGAAGAGCCUUGGUUUUUUG [C72G U106C] | -0.865 |
| GACCAAUCUGCCCUCAGAGCUCGAGAACAUCUUCGGAUGCAGAGGAGGCAGGCUUCGGUGGCGCGAUAGCGGCAACGUCCUCAACCUCCAAUGCAUCCCACCACAUGAUGAUGCCUGAAGAGCCAUGAUUUUAUG [C72G U125A G128A U133A] | -3.47 |
| GACCAAUCUGCCCUCAGAGCUCGAGAACAUCUUCGGAUGCAGAGGAGGCAGGCUUCGGUGGCGCGAUAGCGGCAACGUCCCCAACCCCCAAUGCAUCCCUCCACAUGAUGAUGCCUGAAGAGCCUUGGUUUUUUG [C72G U81C U87C A100U] | -2.07 |
| GACCAAUCUGCCCUCAGAGCUCGAGAACAUCUUCGGAUGCAGAGGAGGCAGGCUUCGGUGGCGCGAUAGCGGCAACGUCCUCAACCUCCAAUGCAUCCCACCACAGGAUUAUGCCUGAAGUGCCUAAGUUUUUUG [C72G U106G G110U A121U U126A G127A] | -5.78 |
